Results on four molecules are retold here after US20260116968A1 (CELLDEX THERAPEUTICS, published 2026).

Assay [1] deals with T1, human CD40 expressed on the cell surface (Raji cells, Ramos cells, human PBMC B cells, luciferase reporter … (human, UniProt P25942 21-277)).
T1 construct: also called CD40 on cells expressing human CD40
The assay can be described thus: flow cytometry on Raji and Ramos cells. The method, then:
Antibodies from Example 1 were tested for binding to human cell lines expressing human CD40 on their surface. […] After 20 minutes, the cells were washed with PBS containing 0.1% BSA and 0.05% NaN3 (PBA) and the bound antibodies were detected by incubating the cells with a PE labeled goat anti-human IgG Fc-specific probe. The excess probe was washed from the cells with PBA and the cell associated fluorescence was determined by analysis using a FACSCanto II™ instrument (BD Biosciences, NJ, USA) according to the manufacturer's directions.

For assay [2], the target named is T2, kappa-sCD40(1-94)-Flag mutant fragment B (multiple mutations of residues 13-15) (human, UniProt P25942 21-114).
T2 construct: also called B (13-15); not shown: The N-terminal human kappa light chain and the C-terminal Flag tag
T2 chain: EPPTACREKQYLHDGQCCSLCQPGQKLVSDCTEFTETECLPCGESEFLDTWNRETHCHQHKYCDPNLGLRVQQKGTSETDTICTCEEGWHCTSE
Briefly: ELISA, kappa-sCD40-Flag captured by anti-Flag, anti-human IgG Fc-HRP detection. The method, then: (§1) 1 μg/ml of purified kappa-sCD40-Flag fusion proteins or CHO cell supernatants containing the sCD40 fusion proteins were captured to microtiter plates that were pre-coated with 5 μg/ml mouse anti-Flag antibody (Sigma) in PBS and blocked with 5% bovine serum albumin in PBS. Following incubation with the CD40 antibody, the microplates were washed with PBS/Tween, and incubated with a goat anti-human IgG Fc polyclonal reagent conjugated to horseradish peroxidase. After washing, the plates were developed with HRP substrate, and analyzed at OD 450-650 using a microtiter plate reader. An ELISA with a goat anti-human IgG Fab2-HRP to measure kappa chain binding was carried out in parallel to validate the sCD40 fusion protein expression from different transfections.
On the technique in general: ELISA stands for enzyme-linked immunosorbent assay.

Assay [3] addresses T3, kappa-sCD40(1-94)-Flag mutant fragment C (multiple mutations of residues 25, 26, 28 and 30) (human, UniProt P25942 21-114).
T3 construct: also called C (25, 26, 28, 30); not shown: The N-terminal human kappa light chain and the C-terminal Flag tag
T3 chain: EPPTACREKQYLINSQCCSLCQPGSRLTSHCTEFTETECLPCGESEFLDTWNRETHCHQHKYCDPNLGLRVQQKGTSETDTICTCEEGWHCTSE
The assay is described as above. The method, then:
as §1

Assay [4] addresses T2, kappa-sCD40(1-94)-Flag mutant fragment …. The assay can be described thus: ELISA, kappa-sCD40-Flag (~2 ug/ml) captured by anti-Flag, anti-human IgG Fc-HRP detection. How it is done:
as §1, with “containing” for “1 μg/ml of purified kappa-sCD40-Flag fusion proteins or CHO cell supernatants containing”

In assay [5] the target is T3, kappa-sCD40(1-94)-Flag mutant fragment …. The assay is described as above. How it is done: as §1, with “containing” for “1 μg/ml of purified kappa-sCD40-Flag fusion proteins or CHO cell supernatants containing”

T1 sequence (P25942 21-277 limits assumed): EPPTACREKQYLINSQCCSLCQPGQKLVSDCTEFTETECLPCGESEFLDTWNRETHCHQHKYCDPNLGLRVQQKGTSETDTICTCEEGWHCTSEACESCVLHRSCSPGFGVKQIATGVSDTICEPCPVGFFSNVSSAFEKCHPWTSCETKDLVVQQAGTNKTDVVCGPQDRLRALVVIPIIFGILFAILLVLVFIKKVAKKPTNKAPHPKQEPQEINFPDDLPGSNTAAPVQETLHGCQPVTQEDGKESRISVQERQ

B1: anti-CD40 human monoclonal antibody 6H6 (antibody, human IgG2, V domains shown)
VH: QVQLVESGGGVVQPGRSLRFSCAASGFTLSSYGMHWVRQAPGKGLEWVAVIWDDGSNKYYADSVKGRFTISRDNSKNTLYLQMNSLRAEDTAVYYCARAGGSGRYYNYFDYWGQGTLVTVSS
VL: EIVMTQSPATLSVSPGERATLSCRASQSVRSNLAWYQQKPGQAPRLLIYGASTRATGIPARFSGSGSGTDFTLTISSLQSEDFAVYYCQQHNNWLTFGGGTKVEIK
notes: Human IgG2
Take B1: in assay [1], the binding result was “binds”.

B2: anti-CD40 human monoclonal antibody 3C3 (antibody, human IgG2, kappa, V domains shown)
VH: QVQLVESGGGVVQPGRSLRLSCAGSGFIFSRYGMYWVRQAPGKGLEWVAVIWYDGSYKYYADSVKGRFTISRDNSKNTLYLQMNSLRAEDTAVYYCARESPWYYFDYWGQGTLVTVSS
VL: DIQMTQSPSSLSASVGDRVTITCRASQGISNYLAWYQQKPGKVPKLLIYAASTLQSGVPSRFSGSGSGTDFTLTISSLQPEDVATYYCQKYKSAPFTFGPGTKVDIKR
notes: Full chains with leader removed; human IgG2 constant domain with C-terminal lysine removed; also called anti-CD40 mAb 3C3; CD40 antibody 3C3
Turning to B2, the figures for the “Average OD” value in assay [2] and in assay [3] were 2.03 OD 450-650 and 1.49 OD 450-650, respectively. Moreover, the OD amounted to 2.38 OD 450-650 in assay [4] and 2.02 OD 450-650 in assay [5].

B3: anti-CD40 human monoclonal antibody 3B6 (antibody, human IgG2, V domains shown)
VH: EVQLLESGGGLVQPGGSLRLSCAASGFTFSSYAMSWVRQAPGKGLEWVSGITGTGGSTYYADSVKGRFTISRDNSKNTLYVQMNSLRAEDTAVYYCAKRAGGSFYYYYGMDVWGQGTTVTVSS
VL: DIVMTQSPLSLPVTPGEPASISCRSSQSLLHSTGYNYLDWYLQKPGQSPQLLIYLGSNRASGVPDRFNGSGSGTDFTLKISRVEAEDFGVYYCMQALQTPWTFGHGTKVEIK
notes: Human IgG2
Turning to B3, the binding result in assay [1] was “binds”.

B4: anti-CD40 human monoclonal antibody 1B4 (antibody, human IgG2, V domains shown)
VH: EVQLLESGGGLVQPGGSLRLSCAASGFTFSSYAMTWVRQVPGKGLEWVSGITGSGANTFYTDSVKGRFTISRDNSNNSLYLQMNSLRADDTAVYYCAKRNGGSYYYYYGMDVWGQGTTVTVSS
VL: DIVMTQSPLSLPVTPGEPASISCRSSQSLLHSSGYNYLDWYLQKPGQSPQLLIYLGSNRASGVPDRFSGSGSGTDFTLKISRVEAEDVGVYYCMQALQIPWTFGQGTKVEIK
notes: Human IgG2
Turning to B4, the binding result in assay [1] is on record as “binds”.
